In patent publication US7655771B1, “Polymorphisms in the human cyp3a4 and cyp3a7 genes and their use in diagnostic and therapeutic applications” (PGx Health, LLC, priority 1999, dated 2010):
“And” between values parts separate entries of the source, which are not always exact repeats. Identical values can stand only once. Marks after values point to notes of the source that are not given here.

Experiments:
CYP3A4 [1] = experiment: Testosterone hydroxylase activity of wild-type and mutant CYP3A4 proteins (reconstituted with NADPH-cytochrome P450 reductase and cytochrome b5); type: biochemical, human; details: for Testosterone hydroxylase activity relative to wild-type CYP3A4: 25 μM testosterone (lower steroid concentration)
Method: (§1) Mutants were expressed in E. coli TOPP3 cells. Cultures of each strain were started from single colonies in 2-ml of LB media containing ampicillin (50 μg/ml) and tetracycline (15 μg/ml) and grown overnight at 37° C. with shaking. Larger, 20-ml cultures of each sample were inoculated and grown as described for the 2-ml cultures. Starter cultures (15 ml) were inoculated into 250-ml of TB media containing ampicillin (50 μg/ml) and grown 2-3 hr at 37° C. at 250 rpm. δ-aminolevulinic acid (80 mg/L) and IPTG (1 mM) were added and the cultures grown 72 hr at 30° C. at 190 rpm. The cells were harvested, sonicated and CHAPS solubilized, and the protein was purified on Talon Metal Affinity resin from Clontech (Palo Alto, Calif.). Final P450 content was measured by reduced CO difference spectra (Omura, J Biol Chem 239 (1964), 2370-2378), and each protein was visualized on an 8.5% SDS PAGE gel stained with Coomassie blue. Western Blot analysis of CYP3A4 wild-type, M2, M5 and M7 was performed by resolving 1 pmol of 3A4 wildtype and M5, and 8 μl of M2 and M7 total protein sample on an 8.5% SDS PAGE gel. The samples were then transferred to nitrocellulose and probed with an anti-3A12 polyclonal antibody known to cross-react with CYP3A4 (Ciaccio, Arch Biochem Biophys 271 (1989), 284-99).
(§2) Following the reconstitution with NADPH-cytochrome P450 reductase and cytochrome b5, the catalytical activities of M1, M4, M5 and M6 variants were measured using testosterone, progesterone and 7-BFC as substrates (Tables 5-7).

CYP3A4 [2] = experiment: Progesterone hydroxylase activity of wild-type and mutant CYP3A4 proteins; type: biochemical, human
Method: as §1, §2

CYP3A4 [3] = experiment: 7-Benzyloxy-4-(trifluoromethyl)coumarin (7-BFC) debenzylase activity of wild-type and mutant CYP3A4 proteins; type: biochemical, human; details: for 7-BFC debenzylase activity, 7-hydroxy-4-(trifluoromethyl)coumarin: substrate 7-BFC
Method: as §1, §2

CYP3A4 holoenzyme = experiment: Expression of CYP3A4 holoenzyme in E. coli, reduced CO difference spectra; design: species or system human; details: for Detectable P450 holoprotein, in words: E. coli expression, reduced CO difference spectra
Method: as §1
The effect of the protein variants on the expression level and catalytical activity of CYP3A4 was investigated using a bacterial CYP3A4 expression system. Sequence variants were introduced into the pSE3A4H expression vector (Harlow, J Biol Chem 272 (1997), 5396-402) which encodes for a CYP3A4 protein identical to that found in most Caucasians. No other, unwanted mutations were introduced into the CYP3A4 insert or the promoter driving its expression as confirmed by sequencing. Mutants M1-M8 were expressed in E. coli as described in Example 5, the expression of the CYP3A4 holoenzyme assessed by measuring reduced CO difference spectra, and the protein purified. All but M2, M5 and M7 mutants were detectable at levels similar to CYP3A4. […] The expression of M2, M5, and M7 was further investigated by Western Blotting using an anti-CYP3A12 polyclonal antibody known to cross-react with CYP3A4 (Ciaccio, Arch Biochem Biophys 271 (1989), 284-99) as described in Example 5.

CYP3A4 [4] = experiment: Western blot with anti-CYP3A12 polyclonal antibody; design: species or system human
Method: FIG. 7: Immunoblot of wild-type CYP3A4 (3A4), R130Q (M2), T363M (M5), and P416L (M7). P450 (1 pmol) was loaded into each lane, transferred to nitrocellulose, and probed with anti-3A12 IgG as described in Materials and Methods.
as §1
The effect of the protein variants on the expression level and catalytical activity of CYP3A4 was investigated using a bacterial CYP3A4 expression system. Sequence variants were introduced into the pSE3A4H expression vector (Harlow, J Biol Chem 272 (1997), 5396-402) which encodes for a CYP3A4 protein identical to that found in most Caucasians. […] Mutants M1-M8 were expressed in E. coli as described in Example 5, the expression of the CYP3A4 holoenzyme assessed by measuring reduced CO difference spectra, and the protein purified. […]

CYP3A4 [5] = biological target: T1, CYP3A4 (Homo sapiens, UniProt P08684, D174H); experiment: Progesterone hydroxylase activity of wild-type and mutant CYP3A4 proteins; type: biochemical; details: lower steroid concentration
T1 construct: made in house; host or cells: E. coli TOPP3
T1 sequence (P08684 2-503 D174H): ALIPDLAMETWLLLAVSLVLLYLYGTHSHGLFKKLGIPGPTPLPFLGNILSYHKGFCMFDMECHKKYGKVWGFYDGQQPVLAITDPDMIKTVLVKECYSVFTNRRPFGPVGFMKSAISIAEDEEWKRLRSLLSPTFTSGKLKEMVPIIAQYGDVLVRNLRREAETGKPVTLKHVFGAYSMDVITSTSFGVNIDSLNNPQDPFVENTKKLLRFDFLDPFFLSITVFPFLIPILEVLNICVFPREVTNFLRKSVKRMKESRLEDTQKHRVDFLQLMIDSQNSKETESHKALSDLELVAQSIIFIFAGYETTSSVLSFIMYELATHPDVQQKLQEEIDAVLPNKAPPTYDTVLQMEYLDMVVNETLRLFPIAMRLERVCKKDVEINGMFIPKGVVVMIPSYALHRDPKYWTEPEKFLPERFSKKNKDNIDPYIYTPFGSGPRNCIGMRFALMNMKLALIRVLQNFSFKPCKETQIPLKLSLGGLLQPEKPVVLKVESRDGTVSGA
Method: as §1, §2

| Substance | Testosterone hydroxylase metabolite profile compared with wild-type CYP3A4 (CYP3A4 [1]) | Testosterone hydroxylase activity, 2β-OH (CYP3A4 [1]; 25 μM testosterone) | Testosterone hydroxylase activity, 6β-OH (CYP3A4 [1]; 25 μM testosterone) | Testosterone hydroxylase activity, 15β-OH (CYP3A4 [1]; 25 μM testosterone) | Testosterone hydroxylase activity relative to wild-type CYP3A4 (CYP3A4 [1]) [%] | Testosterone hydroxylase activity, 2β-OH (CYP3A4 [1]; 400 μM testosterone) | Testosterone hydroxylase activity, 6β-OH (CYP3A4 [1]; 400 μM testosterone) | Testosterone hydroxylase activity, 15β-OH (CYP3A4 [1]; 400 μM testosterone) | Progesterone (steroid) hydroxylase metabolite profile compared with wild-type CYP3A4 (CYP3A4 [2]) | Progesterone hydroxylase 6β/16α ratio (CYP3A4 [2]; 25 μM progesterone) | Progesterone hydroxylase activity, 6β-OH (CYP3A4 [2]; 25 μM progesterone) | Progesterone hydroxylase activity, 16α-OH (CYP3A4 [2]; 25 μM progesterone) | Progesterone hydroxylase 6β/16α ratio (CYP3A4 [2]; 150 μM progesterone) | Progesterone hydroxylase activity, 6β-OH (CYP3A4 [2]; 150 μM progesterone) | Progesterone hydroxylase activity, 16α-OH (CYP3A4 [2]; 150 μM progesterone) | 7-BFC debenzylase activity relative to CYP3A4 (CYP3A4 [3]) [%] | Effect of mutation on expression of CYP3A4 holoenzyme (conclusion) (CYP3A4 holoenzyme) | Detectable P450 holoprotein, in words (CYP3A4 holoenzyme) | Band in immunoblot (CYP3A4 [4]) | 7-BFC debenzylase activity, 7-hydroxy-4-(trifluoromethyl)coumarin (CYP3A4 [3]) | further results |
| --- | --- | --- | --- | --- | --- | --- | --- | --- | --- | --- | --- | --- | --- | --- | --- | --- | --- | --- | --- | --- | --- |
| M1: CYP3A4 protein variant G56D (g.6004G>A, exon 3) [Mutant M1] | Neither M1 nor M4 mutant displayed alterations | <0.1, <0.1 nmol product/min/nmol protein | 5.1 nmol product/min/nmol protein and 4.8 nmol product/min/nmol protein | 0.2, 0.2 nmol product/min/nmol protein | 53 | 5.4 nmol product/min/nmol protein and 6.9 nmol product/min/nmol protein | 32.1, nmol product/min/nmol protein and 32.2^b nmol product/min/nmol protein | 1.2 nmol product/min/nmol protein and 1.1 nmol product/min/nmol protein | Neither M1 nor M4 mutant displayed alterations | 5.6, 5.6 | 7.8, nmol product/min/nmol protein and 7.9^b nmol product/min/nmol protein | 1.4, 1.4 nmol product/min/nmol protein | 5.1, 5.1 | 21.3, nmol product/min/nmol protein and 21.3^b nmol product/min/nmol protein | 4.2, 4.2 nmol product/min/nmol protein | 137 |  |  |  |  |  |
| M2: CYP3A4 protein variant R130Q (g.13908G>A, exon 5) [Mutant M2] |  |  |  |  |  |  |  |  |  |  |  |  |  |  |  |  | abolish | no detectable P450 holoprotein | Bands of the expected size |  |  |
| M4: CYP3A4 protein variant D174H (g.14304G>C, exon 6) [Mutant M4] | Neither M1 nor M4 mutant displayed alterations | <0.1, <0.1 nmol product/min/nmol protein | 4.4 nmol product/min/nmol protein and 3.9 nmol product/min/nmol protein | 0.1, 0.1 nmol product/min/nmol protein | < 50 | 5.3 nmol product/min/nmol protein and 5.6 nmol product/min/nmol protein | 32.4 nmol product/min/nmol protein and 29.8 nmol product/min/nmol protein | 1.3 nmol product/min/nmol protein and 0.9 nmol product/min/nmol protein | Neither M1 nor M4 mutant displayed alterations |  | 5.5 nmol product/min/nmol protein and 5.4 nmol product/min/nmol protein | 0.5, 0.5 nmol product/min/nmol protein | 5.5 and 5.9 | 21.4 nmol product/min/nmol protein and 18.4 nmol product/min/nmol protein | 3.9 nmol product/min/nmol protein and 3.1 nmol product/min/nmol protein | < 50 |  |  |  | 2.3 nmol product/min/nmol protein and 1.9 nmol product/min/nmol protein | Progesterone hydroxylase activity relative to wild-type CYP3A4 (CYP3A4 [5]): < 50% |
| M6: CYP3A4 protein variant L373F (g.21896C>T, exon 11) [Mutant M6] | strikingly altered testosterone hydroxylase metabolite profile | 3.5 nmol product/min/nmol protein and 2.8 nmol product/min/nmol protein | 10.1 nmol product/min/nmol protein and 8.6 nmol product/min/nmol protein | 1.7 nmol product/min/nmol protein and 1.3 nmol product/min/nmol protein |  | 29.2, nmol product/min/nmol protein and 36.3 nmol product/min/nmol protein | 45.3 nmol product/min/nmol protein and 58.8 nmol product/min/nmol protein | 5.9 nmol product/min/nmol protein and 7.7 nmol product/min/nmol protein |  | 7.5 and 7.7 | 15.8, nmol product/min/nmol protein and 12.3 nmol product/min/nmol protein | 2.1 nmol product/min/nmol protein and 1.6 nmol product/min/nmol protein | 7.9 and 7.7 | 40.1 nmol product/min/nmol protein and 49.8 nmol product/min/nmol protein | 5.1 nmol product/min/nmol protein and 6.5 nmol product/min/nmol protein |  |  |  |  | 4.5 nmol product/min/nmol protein and 5.2 nmol product/min/nmol protein |  |
| M7: CYP3A4 protein variant P416L (g.22026C>T, exon 11) [Mutant M7] |  |  |  |  |  |  |  |  |  |  |  |  |  |  |  |  | abolish | no detectable P450 holoprotein | Only a very faint band |  |  |
| WT: wild-type CYP3A4 protein encoded by pSE3A4H vector, identical to that found in most Caucasians, expressed in E. coli [reference compound] |  | 0.2 nmol product/min/nmol protein | 9.3^a nmol product/min/nmol protein | 0.4 nmol product/min/nmol protein |  | 3.0 nmol product/min/nmol protein | 41.6^a nmol product/min/nmol protein | 1.2 nmol product/min/nmol protein |  | 7.1 | 12.1^a nmol product/min/nmol protein | 1.7 nmol product/min/nmol protein | 5.0 | 32.1^a nmol product/min/nmol protein | 6.4 nmol product/min/nmol protein |  |  |  | Bands of the expected size | 6.5^a nmol product/min/nmol protein |  |
